Test results reported in US20240390508A1 (Takeda / Millennium, published 2024).

Biological target: T1, human transferrin receptor (hTfR) (human, UniProt P02786 89-760, limits assumed)
T1 construct: 0.5 uM hTfR solution immobilised on a Ni-NTA chip with EDC/NHS; source and construct are not described; also called human TfR
Assay: SPR, hTfR immobilised on NTA chip, single cycle kinetics; A = KD less than 100 nM
Procedure: The various synthesized peptide-nucleic acid conjugates were tested for intermolecular interaction by surface plasmon resonance (SPR) of the peptide-nucleic acid conjugate with transferrin receptor (hTfR) using the method shown below. The specific test method is shown below.
NTA sensor chip (Global Life Science Technologies Japan Co., Ltd.) was inserted into Biacore T200 (Global Life Science Technologies Japan Co., Ltd.), prime operation was performed three times with running buffer: 10 mM HEPES pH 8.0 (Nacalai Tesque Co., Ltd.), 150 mM NaCl (Nacalai Tesque Co., Ltd.), 0.05% Tween 20 (Nacalai Tesque Co., Ltd.), 0.1% BSA (SIGMA-ALDRICH), and 1.0% DMSO (FUJIFILM Wako Pure Chemical Corporation), and equilibrated at a flow rate of 30 μL/min. 350 mM EDTA solution was reacted for 60 seconds at a flow rate of 10 μL/min, 0.5 mM NiCl₂ solution (Kishida Chemical) was reacted for 60 seconds at a flow rate of 10 μL/min, and the NTA sensor chip was washed with 3 mM EDTA solution (Nacalai Tesque Co., Ltd.) for 60 seconds at a flow rate of 10 μL/min. After mixing 50 μL each of 60 mM EDC solution (Global Life Science Technologies Japan Co., Ltd.) and 650 mM NHS solution (Global Life Science Technologies Japan Co., Ltd.), the mixture was reacted for 420 seconds at a flow rate of 10 μL/min. 150 μL of a 0.5 μM hTfR solution was prepared by diluting with a running buffer and reacted for 300 seconds at a flow rate of 10 μL/min to immobilize hTfR on the NTA sensor chip. After immobilization, capping was performed by reacting with a 1.0 M ethanolamine aqueous solution (Global Life Science Technologies Japan Co., Ltd.) at a flow rate of 10 μL/min for 420 seconds. A peptide-nucleic acid conjugate solution adjusted to 10 mM in DMSO solution was diluted with running buffer to a final concentration of […] peptide-nucleic acid conjugate solution, and 100 nM, 50 nM, 25 nM, 10 nM, 5 nM peptide-nucleic acid conjugate solutions were prepared. Using the aforementioned samples, the kinetics of the peptide against hTfR was obtained by SPR measurement.
The kinetics evaluation model was Single Cycle Kinetics, and curve fitting was performed using Biacore T200 Evaluation Software Version 3.0 (Global Life Science Technologies Japan Co., Ltd.).

T1 sequence (P02786 89-760 limits assumed): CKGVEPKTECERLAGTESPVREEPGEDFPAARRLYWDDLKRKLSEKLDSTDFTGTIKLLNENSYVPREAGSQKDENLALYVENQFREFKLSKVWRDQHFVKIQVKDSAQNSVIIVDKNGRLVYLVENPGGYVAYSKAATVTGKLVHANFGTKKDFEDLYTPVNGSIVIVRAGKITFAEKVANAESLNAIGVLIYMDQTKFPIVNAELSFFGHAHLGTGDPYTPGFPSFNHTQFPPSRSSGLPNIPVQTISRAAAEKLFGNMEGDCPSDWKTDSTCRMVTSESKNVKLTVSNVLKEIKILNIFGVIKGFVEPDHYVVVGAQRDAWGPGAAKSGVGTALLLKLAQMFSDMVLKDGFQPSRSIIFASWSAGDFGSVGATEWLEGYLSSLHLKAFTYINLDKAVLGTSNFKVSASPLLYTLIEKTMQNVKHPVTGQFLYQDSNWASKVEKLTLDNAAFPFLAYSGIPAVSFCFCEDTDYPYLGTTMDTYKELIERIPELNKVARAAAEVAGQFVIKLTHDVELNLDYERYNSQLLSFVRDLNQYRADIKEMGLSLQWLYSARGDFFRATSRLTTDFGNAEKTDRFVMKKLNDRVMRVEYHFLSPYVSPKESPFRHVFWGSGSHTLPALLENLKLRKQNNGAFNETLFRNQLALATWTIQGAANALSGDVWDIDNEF

Kd	Binder
< 100 nM	AVFVWNYYIIRRYYC (MeF at 3, MeY at 14 (N-methyl); thioether ring from N-terminal chloroacetyl-Ala to Cys 15; C-terminal Gly-KN3-NH2, azide joined to BCN on the oligonucleotide, also called A2/C44) [peptide-HDO conjugate of Example 46 (first nucleic acid strand A2, second nucleic acid strand C44)]
< 100 nM	Y11-PMO conjugate of Example 58 (not fully specified; N-terminal BCN; C-terminal amide; tBuS removed from Cys, Cys thiol joined to 3-maleimide propionyl A1; MeF at 3, MeY at 14 (N-methyl); thioether ring from N-terminal chloroacetyl-Ala to Cys 15; C-terminal Gly-KN3-NH2, azide joined to BCN of the linker peptide) peptide: AVFVWNYYIIRRYYC GGGEEESSC
< 100 nM	AVFVWNYYIIRRYYC (MeF at 3, MeY at 14 (N-methyl); thioether ring from N-terminal chloroacetyl-Ala to Cys 15; C-terminal Gly-KN3-NH2, azide joined to BCN on the oligonucleotide, also called A1/C1) [Y6-HDO conjugate of Example 1 (compound A1 annealed with compound C1)]
< 100 nM	AVFVWNYYIIRRYYC (MeF at 3, MeY at 14 (N-methyl); thioether ring from N-terminal chloroacetyl-Ala to Cys 15; C-terminal Gly-KN3-NH2, azide joined to BCN on the oligonucleotide, also called A2/C31) [peptide-HDO conjugate of Example 39 (first nucleic acid strand A2, second nucleic acid strand C31)]
< 100 nM	Y10-PMO conjugate of Example 57 (not fully specified; N-terminal BCN-AEEA; C-terminal beta-Ala coupled to the 3' end of PMO A1; MeF at 3, MeY at 14 (N-methyl); thioether ring from N-terminal chloroacetyl-Ala to Cys 15; C-terminal Gly-KN3-NH2, azide joined to BCN of the linker peptide) peptide: AVFVWNYYIIRRYYC RRRA
< 100 nM	Y13-PMO conjugate of Example 60 (not fully specified; N-terminal 4-pentynoyl-AEEA; C-terminal Gly coupled to PMO A4; MeF at 3, MeY at 14 (N-methyl); thioether ring from N-terminal chloroacetyl-Ala to Cys 15; C-terminal Gly-KN3-NH2, azide joined by copper-catalysed click to the 4-pentynoyl group of the linker …) peptide: AVFVWNYYIIRRYYC RRRG
< 100 nM	AVFVWNYYIIRRYYC (MeF at 3, MeY at 14 (N-methyl); thioether ring from N-terminal chloroacetyl-Ala to Cys 15; C-terminal Gly-KN3-NH2, azide joined to BCN on the oligonucleotide, also called A2/C18) [peptide-HDO conjugate of Example 23 (first nucleic acid strand A2, second nucleic acid strand C18)]
< 100 nM	AVFVWNYYIIRRYYC (not fully specified; MeF at 3, MeY at 14 (N-methyl); thioether ring from N-terminal chloroacetyl-Ala to Cys 15; C-terminal Gly-KN3-NH2, azide joined to BCN on the oligonucleotide, also called A4/C56) [peptide-HDO conjugate of Example 56 (first nucleic acid strand A4, second nucleic acid strand C56)]
< 100 nM	AVFVWNYYIIRRYYC (MeF at 3, MeY at 14 (N-methyl); thioether ring from N-terminal chloroacetyl-Ala to Cys 15; C-terminal Gly-KN3-NH2, azide joined to BCN on the oligonucleotide, also called A2/C16) [peptide-HDO conjugate of Example 16 (first nucleic acid strand A2, second nucleic acid strand C16)]
< 100 nM	AVFVWNYYIIRRYYC (MeF at 3, MeY at 14 (N-methyl); thioether ring from N-terminal chloroacetyl-Ala to Cys 15; C-terminal Gly-KN3-NH2, azide joined to BCN on the oligonucleotide, also called A1/C32) [peptide-HDO conjugate of Example 32 (first nucleic acid strand A1, second nucleic acid strand C32)]
< 100 nM	AVFVWNYYIIRRYYC (MeF at 3, MeY at 14 (N-methyl); thioether ring from N-terminal chloroacetyl-Ala to Cys 15; C-terminal Gly-KN3-NH2, azide joined to BCN on the oligonucleotide, also called A1/C26) [peptide-HDO conjugate of Example 26 (first nucleic acid strand A1, second nucleic acid strand C26)]
< 100 nM	AVFVWNYYIIRRYYC (MeF at 3, MeY at 14 (N-methyl); thioether ring from N-terminal chloroacetyl-Ala to Cys 15; C-terminal Gly-KN3-NH2, azide joined to BCN on the oligonucleotide, also called A1/C29) [peptide-HDO conjugate of Example 29 (first nucleic acid strand A1, second nucleic acid strand C29)]
< 100 nM	AVFVWNYYIIRRYYC (MeF at 3, MeY at 14 (N-methyl); thioether ring from N-terminal chloroacetyl-Ala to Cys 15; C-terminal Gly-KN3-NH2, azide joined to BCN on the oligonucleotide, also called A1/C21) [peptide-HDO conjugate of Example 21 (first nucleic acid strand A1, second nucleic acid strand C21)]
< 100 nM	AVFVWNYYIIRRYYC (MeF at 3, MeY at 14 (N-methyl); thioether ring from N-terminal chloroacetyl-Ala to Cys 15; C-terminal Gly-KN3-NH2, azide joined to BCN on the oligonucleotide, also called A1/C44) [peptide-HDO conjugate of Example 44 (first nucleic acid strand A1, second nucleic acid strand C44)]
< 100 nM	AVFVWNYYIIRRYYC (MeF at 3, MeY at 14 (N-methyl); thioether ring from N-terminal chloroacetyl-Ala to Cys 15; C-terminal Gly-KN3-NH2, azide joined to BCN on the oligonucleotide, also called A2/C26) [peptide-HDO conjugate of Example 34 (first nucleic acid strand A2, second nucleic acid strand C26)]
< 100 nM	AVFVWNYYIIRRYYC (MeF at 3, MeY at 14 (N-methyl); thioether ring from N-terminal chloroacetyl-Ala to Cys 15; C-terminal Gly-KN3-NH2, azide joined to BCN on the oligonucleotide, also called A2/C17) [peptide-HDO conjugate of Example 22 (first nucleic acid strand A2, second nucleic acid strand C17)]
< 100 nM	AVFVWNYYIIRRYYC (MeF at 3, MeY at 14 (N-methyl); thioether ring from N-terminal chloroacetyl-Ala to Cys 15; C-terminal Gly-KN3-NH2, azide joined to BCN on the oligonucleotide, also called A2/C27) [peptide-HDO conjugate of Example 35 (first nucleic acid strand A2, second nucleic acid strand C27)]
< 100 nM	AVFVWNYYIIRRYYC (MeF at 3, MeY at 14 (N-methyl); thioether ring from N-terminal chloroacetyl-Ala to Cys 15; C-terminal Gly-KN3-NH2, azide joined to BCN on the oligonucleotide, also called A1/C45) [peptide-HDO conjugate of Example 45 (first nucleic acid strand A1, second nucleic acid strand C45)]
< 100 nM	AVFVWNYYIIRRYYC (MeF at 3, MeY at 14 (N-methyl); thioether ring from N-terminal chloroacetyl-Ala to Cys 15; C-terminal Gly-KN3-NH2, azide joined to BCN on the oligonucleotide, also called A1/C33) [peptide-HDO conjugate of Example 33 (first nucleic acid strand A1, second nucleic acid strand C33)]
< 100 nM	AVFVWNYYIIRRYYC (MeF at 3, MeY at 14 (N-methyl); thioether ring from N-terminal chloroacetyl-Ala to Cys 15; C-terminal Gly-KN3-NH2, azide joined to BCN on the oligonucleotide, also called A1/C31) [peptide-HDO conjugate of Example 31 (first nucleic acid strand A1, second nucleic acid strand C31)]
< 100 nM	AVFVWNYYIIRRYYC (MeF at 3, MeY at 14 (N-methyl); thioether ring from N-terminal chloroacetyl-Ala to Cys 15; C-terminal Gly-KN3-NH2, azide joined to BCN on the oligonucleotide, also called A1/C42) [peptide-HDO conjugate of Example 42 (first nucleic acid strand A1, second nucleic acid strand C42)]
< 100 nM	AVFVWNYYIIRRYYC (MeF at 3, MeY at 14 (N-methyl); thioether ring from N-terminal chloroacetyl-Ala to Cys 15; C-terminal Gly-PEG12c-KN3-NH2, azide joined to BCN on the oligonucleotide, also called A2/C50) [peptide-HDO conjugate of Example 53 (first nucleic acid strand A2, second nucleic acid strand C50)]
< 100 nM	AVFVWNYYIIRRYYC (MeF at 3, MeY at 14 (N-methyl); thioether ring from N-terminal chloroacetyl-Ala to Cys 15; C-terminal Gly-PEG12c-KN3-NH2, azide joined to BCN on the oligonucleotide, also called A1/C50) [peptide-HDO conjugate of Example 50 (first nucleic acid strand A1, second nucleic acid strand C50)]
< 100 nM	AVFVWNYYIIRRYYC (MeF at 3, MeY at 14 (N-methyl); thioether ring from N-terminal chloroacetyl-Ala to Cys 15; C-terminal Gly-KN3-NH2, azide joined to BCN on the oligonucleotide, also called A1/C20) [peptide-HDO conjugate of Example 20 (first nucleic acid strand A1, second nucleic acid strand C20)]
< 100 nM	AVFVWNYYIIRRYYC (MeF at 3, MeY at 14 (N-methyl); thioether ring from N-terminal chloroacetyl-Ala to Cys 15; C-terminal Gly-KN3-NH2, azide joined to BCN on the oligonucleotide, also called A2/C10) [peptide-HDO conjugate of Example 10 (first nucleic acid strand A2, second nucleic acid strand C10)]
< 100 nM	AVFVWNYYIIRRYYC (MeF at 3, MeY at 14 (N-methyl); thioether ring from N-terminal chloroacetyl-Ala to Cys 15; C-terminal Gly-KN3-NH2, azide joined to BCN on the oligonucleotide, also called A2/C20) [peptide-HDO conjugate of Example 25 (first nucleic acid strand A2, second nucleic acid strand C20)]
< 100 nM	AVFVWNYYIIRRYYC (MeF at 3, MeY at 14 (N-methyl); thioether ring from N-terminal chloroacetyl-Ala to Cys 15; C-terminal Gly-PEG4c-KN3-NH2, azide joined to BCN on the oligonucleotide, also called A1/C49) [peptide-HDO conjugate of Example 49 (first nucleic acid strand A1, second nucleic acid strand C49)]
